Test results taken from patent publication US20260266848A1, “COMPOSITIONS AND METHODS FOR DIAGNOSING AND TREATING DYSTONIA” (Duke University, priority 2023, published 2026).

Experiments:
[1] = system: DYT-TOR1A MEF EVs; assay: Quantitative LC-MS/MS proteomics of EVs from drug-treated DYT-TOR1A MEF cultures (ritonavir, salubrinal); type: cell-based, mouse; set-up: key to RTV Corrective Direction / RTV Corrective Direction, Grwd1 / RTV Corrective Direction, Srrm2 / RTV Corrective Direction, Rbm17 / RTV Corrective Direction, Dcaf8 / RTV Corrective Direction, Edil3 / RTV Corrective Direction, Timp3 / RTV Corrective Direction, Heatr3 / RTV Corrective Direction, Brd4 / RTV Corrective Direction, P3h4 / RTV Corrective Direction, Pacsin3 / RTV Corrective Direction, Naa50 / RTV Corrective Direction, Lpar6 / RTV Corrective Direction, Ndrg1 / RTV Corrective Direction, Kntc1 / RTV Corrective Direction, Cdk11b / RTV Corrective Direction, Sumo1 / RTV Corrective Direction, Lsm4 / RTV Corrective Direction, Hmga2 / RTV Corrective Direction, Cstf1 / RTV Corrective Direction, Tes / RTV Corrective Direction, Sbno1 / RTV Corrective Direction, Unc119b / RTV Corrective Direction, Cfdp1 / RTV Corrective Direction, Sec61b: YES = protein abundance effect opposite to DYT/WT; conditions: EV protein abundance; for RTV Corrective Direction: DYT + RTV (ritonavir) vs DYT, direction compared with DYT/WT; for DYT + RTV/DYT Cohen's d: ritonavir (RTV)-treated DYT vs DYT
[2] = system: WT MEF EVs; assay: Quantitative LC-MS/MS proteomics of EVs from ISRIB-treated WT MEF cultures; type: cell-based, mouse; set-up: key to ISRIB and DYT Parallel Direction / ISRIB and DYT Parallel Direction, Ctdsp1 / ISRIB and DYT Parallel Direction, Pcdh19 / ISRIB and DYT Parallel Direction, Tspan7 / ISRIB and DYT Parallel Direction, Myo1e / ISRIB and DYT Parallel Direction, Plpp3 / ISRIB and DYT Parallel Direction, Sh3bp4 / ISRIB and DYT Parallel Direction, Dnajc7 / ISRIB and DYT Parallel Direction, Drg1 / ISRIB and DYT Parallel Direction, Maea: YES = protein abundance effect similar to DYT/WT; conditions: EV protein abundance; for WT + ISRIB/WT Cohen's d: ISRIB-treated WT vs WT; for ISRIB and DYT Parallel Direction: WT + ISRIB vs WT, direction compared with DYT/WT

Row | Molecule | RTV Corrective Direction [1] | DYT + RTV/DYT Cohen's d [1] | WT + ISRIB/WT Cohen's d [2] | ISRIB and DYT Parallel Direction [2]
1 | Nectin2 (protein, UniProt Q92692 32-538, looked up) Nectin-2: QDVRVQVLPEVRGQLGGTVELPCHLLPPVPGLYISLVTWQRPDAPANHQNVAAFHPKMGPSFPSPKPGSERLSFVSAKQSTGQDTEAELQDATLALHGLTVEDEGNYTCEFATFPKGSVRGMTWLRVIAKPKNQAEAQKVTFSQDPTTVALCISKEGRPPARISWLSSLDWEAKETQVSGTLAGTVTVTSRFTLVPSGRADGVTVTCKVEHESFEEPALIPVTLSVRYPPEVSISGYDDNWYLGRTDATLSCDVRSNPEPTGYDWSTTSGTFPTSAVAQGSQLVIHAVDSLFNTTFVCTVTNAVGMGRAEQVIFVRETPNTAGAGATGGIIGGIIAAIIATAVAATGILICRQQRKEQTLQGAEEDEDLEGPPSYKPPTPKAKLEAQEMPSQLFTLGASEHSPLKTPYFDAGASCTEQEMPRYHELPTLEERSGPLHPGATSLGSPIPVPPGPPAVEDVSLDLEDEEGEEEEEYLDKINPIYDALSYSSPSDSYQGKGFVMSRAMYV | YES | 3.32 | −1.19 | YES
2 | Aldh2 (protein, UniProt P47738 20-519, looked up) Aldehyde dehydrogenase, …: SAAATSAVPAPNHQPEVFCNQIFINNEWHDAVSRKTFPTVNPSTGEVICQVAEGNKEDVDKAVKAARAAFQLGSPWRRMDASDRGRLLYRLADLIERDRTYLAALETLDNGKPYVISYLVDLDMVLKCLRYYAGWADKYHGKTIPIDGDFFSYTRHEPVGVCGQIIPWNFPLLMQAWKLGPALATGNVVVMKVAEQTPLTALYVANLIKEAGFPPGVVNIVPGFGPTAGAAIASHEGVDKVAFTGSTEVGHLIQVAAGSSNLKRVTLELGGKSPNIIMSDADMDWAVEQAHFALFFNQGQCCCAGSRTFVQENVYDEFVERSVARAKSRVVGNPFDSRTEQGPQVDETQFKKILGYIKSGQQEGAKLLCGGGAAADRGYFIQPTVFGDVKDGMTIAKEEIFGPVMQILKFKTIEEVVGRANDSKYGLAAAVFTKDLDKANYLSQALQAGTVWINCYDVFGAQSPFGGYKMSGSGRELGEYGLQAYTEVKTVTVKVPQKNS | YES | 18.21 | −7.25 | YES
3 | Steap3 (protein, UniProt Q8CI59 1-488, looked up) Metalloreductase STEAP3: MSGEMDKPLISRRLVDSDGSLAEVPKEAPKVGILGSGDFARSLATRLVGSGFSVVVGSRNPKRTAGLFPSLAQVTFQEEAVSSPEVIFVAVFREHYSSLCSLADQLAGKILVDVSNPTEKEHLQHRQSNAEYLASLFPACTVVKAFNVISAWALQAGPRDGNRQVLICSDQPEAKRTISEMARAMGFTPLDMGSLASAREVEAIPLRLLPSWKVPTLLALGLFVCFYTYNFIRDVLQPYIRKDENKFYKMPLSVVNTTLPCVAYVLLSLVYLPGVLAAALQLRRGTKYQRFPDWLDHWLQHRKQIGLLSFFFAMLHALYSFCLPLRRSHRYDLVNLAVKQVLANKSRLWVEEEVWRMEIYLSLGVLALGMLSLLAVTSLPSIANSLNWKEFSFVQSTLGFVALILSTMHTLTYGWTRAFEENHYKFYLPPTFTLTLLLPCVIILAKGLFLLPCLSRRLTKIRRGWEKDGAVKFMLPGDHTQGEKTSHV | YES | 1.81 | −3.91 | YES
4 | Nif3l1 (protein, UniProt Q9EQ80 1-376, looked up) NIF3-like protein 1: MLSSAHLVPTSVQRAQSWICRSSRSFMDLKALLSSLNDFASLSFAESWDNVGLLVEPSPPHTVNTLFLTNDLTEEVMDEALQKKADFILSYHPPIFRPMKHITWKTWKECLVIRALENRVAVYSPHTAYDAAPQGVNSWLAKGLGTCTTRPIHPSRAPDYPTEGAHRLEFSVNRSQDLDKVMSTLRGVGGVSVTSFPARCDGEEQTRISLNCTQKTLMQVLAFLSQDRQLYQKTEILSLEKPLLLHTGMGRLCTLDESVSLAIMIERIKTHLKLSHLRLALGVGRTLESQVKVVALCAGSGGSVLQGVEADLYLTGEMSHHDVLDAASKGINVILCEHSNTERGFLSELQEMLGVHFENKINIILSETDRDPLRVV | YES | 1.58 | −3.93 | YES
